T1: His-tagged recombinant Human TIGIT (human, UniProt Q495A1 22-141)
T1 construct: coated antigen of the direct ELISA; not shown: His tag
T1 sequence (looked up): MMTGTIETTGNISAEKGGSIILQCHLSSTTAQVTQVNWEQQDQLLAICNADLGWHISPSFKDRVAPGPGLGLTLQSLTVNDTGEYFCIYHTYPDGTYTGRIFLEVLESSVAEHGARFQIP

T2: His-tagged recombinant Mouse TIGIT (mouse, UniProt P86176 29-148, limits assumed)
T2 construct: coated antigen of the direct ELISA; not shown: His tag
T2 sequence (looked up): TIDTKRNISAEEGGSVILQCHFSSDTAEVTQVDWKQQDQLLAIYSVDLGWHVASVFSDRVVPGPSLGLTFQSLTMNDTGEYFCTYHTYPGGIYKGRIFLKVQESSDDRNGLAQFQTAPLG

T3: biotinylated human TIGIT (human, UniProt Q495A1 22-141, biotinylated (EZ-Link NHS-PEG4-biotin kit))
T3 construct: extracellular domain; also called TIGIT-ECD
T3 sequence (looked up): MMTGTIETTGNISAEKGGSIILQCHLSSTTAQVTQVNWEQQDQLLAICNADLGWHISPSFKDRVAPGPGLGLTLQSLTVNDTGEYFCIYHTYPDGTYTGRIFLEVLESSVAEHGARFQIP

T4: mouse TIGIT-Fc (mouse, UniProt P86176 29-148)
T4 construct: extracellular domain; also called TIGIT-ECD; not shown: Fc
T4 sequence (looked up): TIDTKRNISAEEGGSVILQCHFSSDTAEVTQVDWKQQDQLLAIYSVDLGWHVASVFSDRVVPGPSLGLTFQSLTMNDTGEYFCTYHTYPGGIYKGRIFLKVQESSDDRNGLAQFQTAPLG

T5: human TIGIT fused to a beta galactosidase portion, on YTS cells (YTS_hTIGIT/hGrb2) (human, UniProt Q495A1 22-244)
T5 sequence (looked up): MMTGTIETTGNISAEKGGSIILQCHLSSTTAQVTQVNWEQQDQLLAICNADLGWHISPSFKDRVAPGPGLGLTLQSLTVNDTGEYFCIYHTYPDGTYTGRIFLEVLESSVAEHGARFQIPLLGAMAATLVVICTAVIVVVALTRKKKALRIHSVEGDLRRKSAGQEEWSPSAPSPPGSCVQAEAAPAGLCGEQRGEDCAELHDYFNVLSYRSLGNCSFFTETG


Columns and labels:
[1] = biological target: T1, His-tagged recombinant Human TIGIT; assay: ELISA
Protocol: (§1) Binding affinities for antigen binding to anti-TIGIT monoclonal antibodies were determined by ELISA. […] Antibodies to be tested were diluted to 1 μM in PBS buffer containing 1% BSA and diluted 3-fold in a 10-point curve. […] Detection of the secondary antibody was determined using streptavidin-HRP and TMB reagent. All assays were performed at room temperature. Curve-fitting software was used to determine the EC₅₀ for each antibody.

[2] = biological target: T2, His-tagged recombinant Mouse TIGIT; assay: ELISA
Protocol: as §1

biotinylated human TIGIT = biological target: T3, biotinylated human TIGIT; assay: comp. ELISA vs PVR
Protocol: (§2) Antibodies were serially diluted in a 10-point curve starting at 1 μM in 3-fold steps. […] Units are in microM.

mouse TIGIT-Fc = biological target: T4, mouse TIGIT-Fc; assay: comp. ELISA vs PVR
Protocol: as §2

[3] = biological target: T5, human TIGIT fused to a beta …; assay: cell-based or functional assay

Row | Binder | EC50 [1] [nM] | EC50 [2] [nM] | IC50 (biotinylated human TIGIT) [nM] | IC50 (mouse TIGIT-Fc) [nM] | YTS_hTIGI/hGrbs_EFC_Agonism, 221_WT [3] [µM] | YTS_hTIGI/hGrbs_EFC_Antagonism, 221_hPVR/ICAM [3] [µM]
1 | Ab1i10 (antibody, V domains shown, mIgG2a of Ab1, V99A) VH: EVQLLESGGGLVQPGGSLRLSCAASGFTFSSYAMHWVRQAPGKGLEWVSGISSNGGSTSYADSVKGRFTISRDNSKNTLYLQMNSLRAEDTAVYYCARVPYSAWIDYWGQGTLVTVSS VL: not shown | 3.9 | 15.1 | 5.8 | 488 |  | 
2 | Ab40i4 (antibody, V domains shown) VH: EVQLLESGGGLVQPGGSLRLSCAASGFTFSSYSMNWVRQAPGKGLEWVAGIKSSSGNKYYADSVKGRFTISRDNSKNTLYLQMNSLRAEDTAVYYCARGPYDVWMDYWGQGTLVTVSS VL: not shown | 0.3 | 2.5 | 3 | 11.1 | 0.0007 | 1.63
3 | Ab22i2 (antibody, V domains shown, mIgG2a of Ab22) VH: EVQLLESGGGLVQPGGSLRLSCAASGFTFSSYSMHWVRQAPGKGLEWVASIKSSGGSKYYADSVKGRFTISRDNSKNTLYLQMNSLRAEDTAVYYCARVPYDYWMDYWGQGTLVTVSS VL: not shown | 1.8 | 0.2 | 38.3 | 2.6 | > 1 | > 1
4 | Ab40i7 (antibody, V domains shown, mIgG2a of Ab40, Y52aS) VH: EVQLLESGGGLVQPGGSLRLSCAASGFTFSSYGMNWVRQAPGKGLEWVAGIKSSSGNKYYADSVKGRFTISRDNSKNTLYLQMNSLRAEDTAVYYCARGPYDVWMDYWGQGTLVTVSS VL: not shown | 0.2 | 7.6 | 3 | 121 | 0.0156 | 0.0163
5 | Ab28i1 (antibody, V domains shown, hIgG1 of Ab28) VH: EVQLLESGGGLVQPGGSLRLSCAASGFTFSSYSMHWVRQAPGKGLEWVANINSNGGNTGYADSVKGRFTISRDNSKNTLYLQMNSLRAEDTAVYYCARVPYDVWMDYWGQGTLVTVSS VL: not shown | 0.4 | 2.7 | 1.2 | 1.3 |  | 0.0758
6 | Ab32i1 (antibody, V domains shown, hIgG1 of Ab32) VH: EVQLLESGGGLVQPGGSLRLSCAASGFTFSSYSMHWVRQAPGKGLEWVANINSNGGNTGYADSVKGRFTISRDNSKNTLYLQMNSLRAEDTAVYYCARVPYDVWMDYWGQGTLVTVSS VL: not shown | 0.4 | 2.5 | 1.1 | 1.4 |  | 0.069
7 | Ab28i2 (antibody, V domains shown, mIgG2a of Ab28) VH: EVQLLESGGGLVQPGGSLRLSCAASGFTFSSYSMHWVRQAPGKGLEWVANINSNGGNTGYADSVKGRFTISRDNSKNTLYLQMNSLRAEDTAVYYCARVPYDVWMDYWGQGTLVTVSS VL: not shown | 0.6 | 2.5 | 2 | 1.5 |  | 0.26
8 | Ab48i1 (antibody, V domains shown, hIgG1 of Ab48) VH: EVQLLESGGGLVQPGGSLRLSCAASGFTFSSYSMNWVRQAPGKGLEWVANIKSSGSSTSYADSVKGRFTISRDNSKNTLYLQMNSLRAEDTAVYYCARGPYDVWMDYWGQGTLVTVSS VL: not shown | 0.2 | 0.2 | 1.9 | 1.5 |  | 0.0286
9 | Ab15i1 (antibody, V domains shown, hIgG1 of Ab15) VH: EVQLLESGGGLVQPGGSLRLSCAASGFTFSSYSMHWVRQAPGKGLEWVASIWSNSGNTGYADSVKGRFTISRDNSKNTLYLQMNSLRAEDTAVYYCARVPYDYWMDYWGQGTLVTVSS VL: not shown | 4.8 | 2.3 | 2.2 | 1.2 | > 1 | > 1
10 | Ab40i3 (antibody, V domains shown, mIgG2a of Ab40, G33S) VH: EVQLLESGGGLVQPGGSLRLSCAASGFTFSSYSMNWVRQAPGKGLEWVAGIKYSSGNKYYADSVKGRFTISRDNSKNTLYLQMNSLRAEDTAVYYCARGPYDVWMDYWGQGTLVTVSS VL: not shown | 0.2 | 41 | 3.7 | > 1000 | 0.08 | 0.0098
11 | Ab15i2 (antibody, V domains shown, mIgG2a of Ab15) VH: EVQLLESGGGLVQPGGSLRLSCAASGFTFSSYSMHWVRQAPGKGLEWVASIWSNSGNTGYADSVKGRFTISRDNSKNTLYLQMNSLRAEDTAVYYCARVPYDYWMDYWGQGTLVTVSS VL: not shown | 21.6 | 2.7 | 10.9 | 1.6 | > 1 | 0.275
12 | Ab10i2 (antibody, V domains shown, hIgG1 of Ab10) VH: EVQLLESGGGLVQPGGSLRLSCAASGFTFSSYSMNWVRQAPGKGLEWVAYIKSNSGTKGYADSVKGRFTISRDNSKNTLYLQMNSLRAEDTAVYYCARGPYDYWLDYWGQGTLVTVSS VL: not shown | 0.3 | 0.1 | 8.5 | 1.1 |  | 0.39
13 | Ab22i1 (antibody, V domains shown, hIgG1 of Ab22) VH: EVQLLESGGGLVQPGGSLRLSCAASGFTFSSYSMHWVRQAPGKGLEWVASIKSSGGSKYYADSVKGRFTISRDNSKNTLYLQMNSLRAEDTAVYYCARVPYDYWMDYWGQGTLVTVSS VL: not shown | 0.7 | 0.3 | 1.5 | 0.5 |  | 0.16
14 | Ab48i2 (antibody, V domains shown, mIgG2a of Ab48) VH: EVQLLESGGGLVQPGGSLRLSCAASGFTFSSYSMNWVRQAPGKGLEWVANIKSSGSSTSYADSVKGRFTISRDNSKNTLYLQMNSLRAEDTAVYYCARGPYDVWMDYWGQGTLVTVSS VL: not shown | 0.2 | 0.2 | 1.6 | 1.9 |  | 0.0068
15 | Ab40i6 (antibody, V domains shown, hIgG1 of Ab40, Y52aS) VH: EVQLLESGGGLVQPGGSLRLSCAASGFTFSSYGMNWVRQAPGKGLEWVAGIKSSSGNKYYADSVKGRFTISRDNSKNTLYLQMNSLRAEDTAVYYCARGPYDVWMDYWGQGTLVTVSS VL: not shown | 0.3 | 37 | 2.7 | 78.8 | 0.0014 | 0.276
